# Assay results as given in patent US20200024360A1 (Janssen / Centocor, published 2020).
# T1: chimpanzee PSMA, full length (Pan troglodytes, UniProt Q04609 1-750 (human entry))
# T1 construct: On transfected HEK293F cells; also called chimp PSMA; H2Q3K5_PANTR
# T1 chain: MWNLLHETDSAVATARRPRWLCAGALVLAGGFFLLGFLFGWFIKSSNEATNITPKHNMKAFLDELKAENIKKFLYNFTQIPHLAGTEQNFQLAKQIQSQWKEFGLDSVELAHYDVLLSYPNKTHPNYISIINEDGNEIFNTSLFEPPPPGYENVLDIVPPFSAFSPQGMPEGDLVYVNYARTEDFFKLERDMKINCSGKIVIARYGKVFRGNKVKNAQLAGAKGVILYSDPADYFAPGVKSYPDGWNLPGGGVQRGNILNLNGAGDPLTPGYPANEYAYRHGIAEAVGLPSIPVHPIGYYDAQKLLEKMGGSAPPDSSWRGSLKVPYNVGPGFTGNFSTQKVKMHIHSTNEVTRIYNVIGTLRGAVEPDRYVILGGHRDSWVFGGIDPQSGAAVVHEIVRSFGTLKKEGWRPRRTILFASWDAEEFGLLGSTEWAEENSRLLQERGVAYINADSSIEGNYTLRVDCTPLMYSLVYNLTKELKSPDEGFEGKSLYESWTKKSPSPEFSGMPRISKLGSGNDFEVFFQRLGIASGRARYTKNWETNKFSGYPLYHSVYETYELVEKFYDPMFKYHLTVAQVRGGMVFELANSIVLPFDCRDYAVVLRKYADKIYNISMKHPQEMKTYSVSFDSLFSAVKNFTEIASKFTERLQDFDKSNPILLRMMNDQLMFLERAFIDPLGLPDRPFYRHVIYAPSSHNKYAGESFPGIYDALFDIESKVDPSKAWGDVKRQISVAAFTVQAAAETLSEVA
# B1: PS3B27 (bispecific antibody, human IgG4 S228P, kappa, lambda, F234A L235A)
# heavy 1: not shown
# light 1: not shown
# heavy 2: EVQLVESGGGLVQPGGSLRLSCAASGFTFNTYAMNWVRQAPGKGLEWVARIRSKYNNYATYYAASVKGRFTISRDDSKNSLYLQMNSLKTEDTAVYYCARHGNFGNSYVSWFAYWGQGTLVTVSSASTKGPSVFPLAPCSRSTSESTAALGCLVKDYFPEPVTVSWNSGALTSGVHTFPAVLQSSGLYSLSSVVTVPSSSLGTKTYTCNVDHKPSNTKVDKRVESKYGPPCPPCPAPEAAGGPSVFLFPPKPKDTLMISRTPEVTCVVVDVSQEDPEVQFNWYVDGVEVHNAKTKPREEQFNSTYRVVSVLTVLHQDWLNGKEYKCKVSNKGLPSSIEKTISKAKGQPREPQVYTLPPSQEEMTKNQVSLTCLVKGFYPSDIAVEWESNGQPENNYKTTPPVLDSDGSFLLYSKLTVDKSRWQEGNVFSCSVMHEALHNHYTQKSLSLSLGK
# light 2: QTVVTQEPSLTVSPGGTVTLTCRSSTGAVTTSNYANWVQQKPGQAPRGLIGGTNKRAPGTPARFSGSLLGGKAALTLSGVQPEDEAEYYCALWYSNLWVFGGGTKLTVLGQPKAAPSVTLFPPSSEELQANKATLVCLISDFYPGAVTVAWKADSSPVKAGVETTTPSKQSNNKYAASSYLSLTPEQWKSHRSYSCQVTHEGSTVEKTVAPTECS
# notes: IgG4 PAA; PSMA arm chains first, then CD3 arm (F405L, R409K); also called PSMB127 x CD3B219; PS2B27
# B2: PS3B23 (bispecific antibody, human IgG4 S228P, kappa, lambda, F234A L235A)
# heavy 1: not shown
# light 1: not shown
# heavy 2: B1 heavy 2
# light 2: B1 light 2
# notes: IgG4 PAA; PSMA arm chains first, then CD3 arm (F405L, R409K); also called PSMB123 x CD3B219
# B3: PS3B22 (bispecific antibody, human IgG4 S228P, kappa, lambda, F234A L235A)
# heavy 1: not shown
# light 1: DIQMTQSPSSLSASVGDRVTITCRASQSIDRWLNWYQQKPGKAPKLLIYAASSLQSGVPSRFSGSGSGTDFTLTISSLQPEDFATYYCQQSPRYPLTFGQGTKVEIKRTVAAPSVFIFPPSDEQLKSGTASVVCLLNNFYPREAKVQWKVDNALQSGNSQESVTEQDSKDSTYSLSSTLTLSKADYEKHKVYACEVTHQGLSSPVTKSFNRGEC
# heavy 2: B1 heavy 2
# light 2: B1 light 2
# notes: IgG4 PAA; PSMA arm chains first, then CD3 arm (F405L, R409K); also called PSMB122 x CD3B219; PSB22
# B4: PS3B30 (bispecific antibody, human IgG4 S228P, kappa, lambda, F234A L235A)
# heavy 1: not shown
# light 1: not shown
# heavy 2: B1 heavy 2
# light 2: B1 light 2
# notes: IgG4 PAA; PSMA arm chains first, then CD3 arm (F405L, R409K); also called PSMB130 x CD3B219
# B5: PS3B19 (bispecific antibody, human IgG4 S228P, kappa, lambda, F234A L235A)
# heavy 1: not shown
# light 1: not shown
# heavy 2: B1 heavy 2
# light 2: B1 light 2
# notes: IgG4 PAA; PSMA arm chains first, then CD3 arm (F405L, R409K); also called PSMB119 x CD3B219
# B6: PS3B20 (bispecific antibody, human IgG4 S228P, kappa, lambda, F234A L235A)
# heavy 1: not shown
# light 1: not shown
# heavy 2: B1 heavy 2
# light 2: B1 light 2
# notes: IgG4 PAA; PSMA arm chains first, then CD3 arm (F405L, R409K); also called PSMB120 x CD3B219
# B7: PS3B24 (bispecific antibody, human IgG4 S228P, kappa, lambda, F234A L235A)
# heavy 1: not shown
# light 1: not shown
# heavy 2: B1 heavy 2
# light 2: B1 light 2
# notes: IgG4 PAA; PSMA arm chains first, then CD3 arm (F405L, R409K); also called PSMB124 x CD3B219
# B8: PS3B28 (bispecific antibody, human IgG4 S228P, kappa, lambda, F234A L235A)
# heavy 1: not shown
# light 1: not shown
# heavy 2: B1 heavy 2
# light 2: B1 light 2
# notes: IgG4 PAA; PSMA arm chains first, then CD3 arm (F405L, R409K); also called PSMB128 x CD3B219
# Legend:
# [1] = molecular target: T1, chimpanzee PSMA, full length; test: FACS, whole cell binding, chimp PSMA HEK; calculated EC50
# Procedure: (§1) PSMA×CD3 bispecific antibodies were tested for binding to PSMA positive cell lines LNCAP, human PSMA-HEK, Chimpanzee-PSMA-HEK and Cynomolgous monkey PSMA-HEK. To assess the binding capabilities of the PSMA bispecific antibodies, the cell-binding assay was utilized (described previously). Briefly, PSMA expressing tumor cells are bound by bispecific antibodies at known concentrations and the bound antibody is detected by an anti-human kappa light chain PE conjugated detection reagent (Invitrogen). The Mean Fluorescents Intensity (MFI) is the measure of bound bispecific antibody. The MFI is converted to a relative EC₅₀. EC₅₀ is a commonly used dose-response curve, where the half maximal effective concentration or the EC₅₀ point is defined as the inflection point of the curve. EC₅₀ s were determined by measuring cell bound bispecific and known concentrations. […] The dose response curves were then diluted down to that of background or no bispecific binding. The inflection point of this curve reflects the EC₅₀ point. The calculated EC₅₀ is determined by taking the ug/ml amount of bispecific antibody at the EC₅₀ point and converting it to a molarity value based on the MW of the bispecific antibody. Bispecific antibodies were normalized for protein concentration and then incubated with the same number of cells expressing either human or cyno PSMA. The MFI at each concentration was collected by flow cytometry and plotted as a function of concentration. Data was transformed via log 10 and then plotted. Nonlinear regression of binding curves was done to determine EC₅₀ s. These relative values were used for ranking PSMA binding to target cells.
# [2] = molecular target: T1, chimpanzee PSMA, full length; test: FACS, whole cell binding, chimp PSMA HEK
# Procedure: as §1
Binder,EC50 [1],EC50 [2]
B1,22.8 nM,3.24 µg/mL
B2,6.18 nM,0.88 µg/mL
B3,21.2 nM,3.02 µg/mL
B4,23.2 nM,3.29 µg/mL
B5,35.9 nM,5.1 µg/mL
B6,23.4 nM,3.33 µg/mL
B7,7.75 nM,1.1 µg/mL
B8,7.08 nM,1.01 µg/mL
